Broadly, the Kd is a measure of binding affinity in units of concentration. A higher Kd goes with lower affinity.

The text below walks through data of article doi:10.1101/2021.08.20.457137 (bioRxiv, 2021).

One assay addresses VcNorM (UniProt Q9KRU4). The assay can be described thus: SEC. A general note: SEC sorts molecules by how far they enter the pores of the column.
In another assay the target is lysozyme (Gallus gallus, UniProt P00698). The assay can be described thus: SEC.
In assay [1] the target is Lyso-Nb_4 K43A (alpaca scaffold, camel CDRs). As to the kind of experiment: SPR.
In assay [2] the target is Lyso-Nb_4 L11A (alpaca scaffold, camel CDRs). As to the kind of experiment: SPR. On the technique in general: In SPR one partner is held on a chip, and binding of the other changes the refractive index at the surface.
Assay [3] deals with Lyso-Nb_4 P41A (alpaca scaffold, camel CDRs). The assay can be described thus: SPR.
The target of assay [4] is Lyso-Nb_4 R45A (alpaca scaffold, camel CDRs). The assay can be described thus: SPR.
Assay [5] addresses Lyso-Nb_4 S112A (alpaca scaffold, camel CDRs). As to the kind of experiment: SPR.
For assay [6], the target named is Lyso-Nb_4 V89A (alpaca scaffold, camel CDRs). As to the kind of experiment: SPR.
For assay [7], the target named is Lyso-Nb_4 W103A (alpaca scaffold, camel CDRs). As to the kind of experiment: SPR.
Assay [8] has as its target Lyso-Nb_4 Y91A (alpaca scaffold, camel CDRs). As to the kind of experiment: SPR.
The target of the next assay is TC-Nb4 (alpaca). The assay can be described thus: SPR.

B1: NorM-Nb17_4 (VHH)
VHH: QRQLVESGGGLVQPGGSLRLSCAASGIIFKINDMGWFRQAPGKEREGVAGITSGGRTNYADSVKGRFIISRDNVKNTVYLQMNSLEPEDTAVYYCKSDGLISYAASQLSTYWGKGTPVTVSS
Regarding B1, the binding result with VcNorM is on record as “binds”.

B2: Lyso-Nb_4 (VHH)
VHH: QRQLVESGGGLVQPGGSLRLSCAASGSTDSIEYMTWFRQAPGKEREGVAALYTHTGNTYYADSVKGRFIISRDKAKNMVYLQMNSLEPEDTAVYYCGATRKYVPVRFALDQSSYDYWGKGTPVTVSS
Take B2: in the assay with lysozyme, the binding result is “binds”.

B3: NabFab (Fab, V domains shown)
VH: EVQLVESGGGLVQPGGSLRLSCAASGFNFSYYSIHWVRQAPGKGLEWVAYISSSSSYTSYADSVKGRFTISADTSKNTAYLQMNSLRAEDTAVYYCARGYQYWQYHASWYWNGGLDYWGQGTLVTVSS
VL: DIQMTQSPSSLSASVGDRVTITCRASQSVSSAVAWYQQKPGKAPKLLIYSASSLYSGVPSRFSGSRSGTDFTLTISSLQPEDFATYYCQQSSSSLITFGQGTKVEIK
Take B3: the fold reduction of affinity against Lyso-Nb 4 in assay [1] was less than 5 fold; in assay [2] it was less than 5 fold; in assay [3] it was 400 fold; in [5], less than 5 fold; in assay [6] it was 600 fold; in assay [7], less than 5 fold. Further, the fold higher KD against Lyso-Nb 4 in assay [4] is more than 40 fold; in [8] it was more than 25 fold. In the assay with TC-Nb4 (alpaca), the Kd turned out to be 0.86 nM.
